{"source": "the DeepSol protein solubility set", "data": [{"test": "soluble on expression in E. coli; label from the status in PepcDB or PDB records", "values": [{"sequence": "SLSKEKISVQENKKMATIRDISLKCGVSVSTVSKVLNGYREIGEETSKAVMKAAEELGYVPNSYARQLKLKKSYNIGVLFDTLSVYGLKNEYFAHILAALRENASQGGYDITFIENNIGNRRMTYLEHCKYRNFDGICIVCADFTNPEVLDVVNSDFPVVTIDHSFNEAISILSDNSGGMRDLAQYIVSMGHKKIAYIHGNKSSVTHNRLVAFHQVLAEHDIVIPEYYMKEGEYRLAESAEEFTYELLNLSDRPTCILASDDYAALGVIKAIKRAGLRFPEDISVAGFDGISISQALEPKLTTVKQDTEKLGEQAAKKLICLMESPMTTPLEHIVLKAELIIGDSVKKLREG", "soluble on expression in E. coli": "soluble"}, {"sequence": "SLTGKKAEEEYLYQLEQLNQLFTKTEALEESKIFYKNIKFERGLFASHIQDQIEIHKANETIIIPLSSTLYHGPLPLDRVAKLNFVPAIFSSQTLLGKNATTQAFFDITESEKPLQLNFAMNYSLSGNAELKLASGQYHNEQSKTDFDWSNVVLNIDLNQNTPNNYVLSVDTFNSNAPNHAVSTASSIKIKDLVVQGSLQSTKWPFIYSGNINSKIGYFEQNTESAESGEKFSLIQKNSQANLTTQVEGDTVNIINKTNLDELHINGNNLGKVTNNVEFNHIDGNALQELLNILVAIGKADSECLYLKHWCKNYNKQAWPLRIISLKLSLPLFLFLMKKAKWHWI", "soluble on expression in E. coli": "not soluble"}, {"sequence": "SLTKKVTIGSYIKFSDSCKRDGLANYSEQGRFWDVHRSQADDVQKIYNQELEFQRLAQRIGNCSGILRFSQIDDDETGKKKLKLRLQEAHFCRVRHCPVCQWRRSLMWQARFYSALPAIIKEYPKARFLFLTLTVKNCHIEDLSDTLRIMNSGWQRLKDRKEFKSVLGWIRSTEVTKGKDGSAHPHFHILLMVPPSWFTHSYVKKSRWAELWAYCARLDYSPVVDIRTVKNCVPEASSGLTEGLKAAVAETLKYSVKPSDMIEGNNWFLQMTKQVHRKRFIASGGVLKNILRESQETNEDLIFADNLNEISDRSRIAFNWRQSEKCYRRFEQGD", "soluble on expression in E. coli": "soluble"}, {"sequence": "SLTVFQPLVPPDWKMNLRDGELYAQVAFSAAPEQGFRAGGHGVLKGGSAWMPDNQVNGVDFVLPFRFADGAWHLGTRGPVTLRIAEVINLVTAKNITADLQGRYPWTEEEPLLLTDVSVDVLGGNVLMKQLRMPQHDPALLRLNNLSSSELVSAVNPKQFAMSGAFSGALPLWLNNEKWIVKDGWLANSGPMTLRLDKDTADAVVKDNMTAGSAINWLRYMEISRSSTKINLDNLGLLTMQANITGTSRVDGKSGTVNLNYHHEENIFTLWRSLRFGDNLQAWLEQ", "soluble on expression in E. coli": "not soluble"}, {"sequence": "SLVPQGGPVLCRDEMEEWSASEAMLFEEALEKYGKDFNDIRQDFLPWKSLASIVQFYYMWKTTDRYIQQKRLKAAEAEG", "soluble on expression in E. coli": "soluble"}, {"sequence": "SLVQHFDTLLVNIGQLLPMESKGPKRGKEMSELQLLEHAALGIRDGKVAFIGTMVEADTFTANQMIDCQGKLVTPGLVDPHTHLIFGGSREHEMALKQQGVPYLEILKNGGGILATVEATRAASEEELITKAICHLNRMLSYGVTTIEAKSGYGLDRETEWKQLRAAKAVGEQHPIDIVSTFLGAHAIPTSHRNDPDRFLDEMADMLGEIKEQNLAEFVDIFTETGVFTVEQSRTFLQKAKERGFGLKLHADEIDPLGGAELAGELGAISADHLVGASDQGIQKMAAAGTIACLLPGTTFYLGKDTYARARDMIDQGLAVTISTDFNPGSSPTENLQLIMSIAALRLKMTPEEIWHAVTVNGAHAIGRGDTAGQLAVGRAADVVVWDAKNYYYVPYHYGVNHVHSVWKKGEVVYERRRAFEGLSISR", "soluble on expression in E. coli": "soluble"}, {"sequence": "SMHFVQQKVKVFRAADPLVGVFLWGVAHSINELSQVPPPVMLLPDDFKASSKIKVNNHLFHRENLPSHFKFKEYCPQVFRNLRDRFGIDDQDYLVSLTRNPPSESEGSDGRFLISYDRTLVIKEVSSEDIADMHSNLSNYHQYIVKCHGNTLLPQFLGMYRVSVDNEDSYMLVMRNMFSHRLPVHRKYDLKGSLVSREASDKEKVKELPTLRDMDFLNKNQKVYIGEEEKKIFLEKLKRDVEFLVQLKIMDYSLLLGIHDIIRGSEPEEEAPVREDESEVDGDCSLTGPPALVGSYGTSPEGIGGYIHSHRPLGPGEFESFIDVYAIRSAEGAPQKEVYFMGLIDILTQYDAKKKAAHAAKTVKHGAGAEISTVHPEQYAKRFLDFITNIFA", "soluble on expression in E. coli": "soluble"}, {"sequence": "SMLGPEGGEGFVVKLRGLPWSCSVEDVQNFLSDCTIHDGAAGVHFIYTREGRQSGEAFVELGSEDDVKMALKKDRESMGHRYIEVFKSHRTEMDWVLKHSGPNSADSANDGFVRLRGLPFGCTKEEIVQFFSGLEIVPNGITLPVDPEGKITGEAFVQFASQELAEKALGKHKERIGHRYIEVFKSSQEEVRSYSDPPLKFMSVQRPGPYDRPGTARRYIGIVKQAGLERMRPGAYSTGYGGYEEYSGLSDGYGFTTDLFGRDLSYCLSGMYDHRYGDSEFTVQSTTGHCVHMRGLPYKATENDIYNFFSPLNPVRVHIEIGPDGRVTGEADVEFATHEEAVAAMSKDRANMQHRYIELFLNSTTGASNGAYSSQVMQGMGVSAAQATYSGLESQSVSGCYGAGYSGQNSMGGYD", "soluble on expression in E. coli": "soluble"}, {"sequence": "SMLSAASRVVSRAAVHCALRSPPPEARALAMSRPPPPRVASVLGTMEMGRRMDAPASAAAVRAFLERGHTELDTAFMYSDGQSETILGGLGLGLGGGDCRVKIATKANPWDGKSLKPDSVRSQLETSLKRLQCPQVDLFYLHAPDHGTPVEETLHACQRLHQEGKFVELGLSNYASWEVAEICTLCKSNGWILPTVYQGMYNATTRQVETELFPCLRHFGLRFYAYNPLAGGLLTGKYKYEDKDGKQPVGRFFGNSWAETYRNRFWKEHHFEAIALVEKALQAAYGASAPSVTSAALRWMYHHSQLQGAHGDAVILGMSSLEQLEQNLAATEEGPLEPAVVDAFNQAWHLVAHECPNYFR", "soluble on expression in E. coli": "soluble"}, {"sequence": "SMSNDKTGKSLEQENSERDVEIRDRNYFRKLSLFDDTVIAGAEMIGTSYDVFGKYCNVGSCMNSLFDERKINASEDNFKKVTILGKTLKVPYYIDCYSVGDLKYTNASGESIESYQSNISSKSRIKGNYLFFSASLKVDFDTDSLTDFENAFSRIQYTYDLYILKSSAEALKEFLKESVKTALDKADTEEDMNDLFNTWGSHFLSGVVMGGCAQYSSSTNKYTSNLTNSFDVVAAASFAGFIGLSARTGNSFMEDIKKFRSASNIKTHAIGGDLSRFDPFGGATSADQPSAEEIAAAKKAFEDWKASVPNAPELVNFADSNPLTGIWELCSDRTQKAKLKKHFETVWAPAESAKRRVHADYIDEIIIGINNTNTPPEGYIGLKSTKDENLNSKGNICLFMHKAKYDPNIDNKDCITELKFITVRDKSPEGDWVKIPQDIYISPNQYLYLCYLPAKYSAEKAIKDIQLLCSSCGSSMILPYGYNDVLDERGERANATEDDNVHYLIYSAGWK", "soluble on expression in E. coli": "soluble"}, {"sequence": "SMTEEQPVASWALSFERLLQDPLGLAYFTEFLKKEFSAENVTFWKACERFQQIPASDTQQLAQEARNIYQEFLSSQALSPVNIDRQAWLGEEVLAEPRPDMFRAQQLQIFNLMKFDSYARFVKSPLYRECLLAEAEGRPLREPGSSRLGSPDAT", "soluble on expression in E. coli": "soluble"}, {"sequence": "SNAIIAGETSIPSQGENMPAYHARPKNADGPLPIVIVVQEIFGVHEHIRDLCRRLAQEGYLAIAPELYFRQGDPNEYHDIPTLFKELVSKVPDAQVLADLDHVASWAARHGGDAHRLLITGFCWGGRITWLYAAHNPQLKAAVAWYGKLVGEKSLNSPKHPVDIAVDLNAPVLGLYGAKDASIPQDTVETMRQALRAANATAEIVVYPEADHAFNADYRASYHEESAKDGWQRMLAWFAQY", "soluble on expression in E. coli": "soluble"}, {"sequence": "SNAMADGIYGSFENLKKHAGTMTLEAYMRFSAKLSEAKDEMGTKEYEVFTKELKKLTNAKLAYGDANGNIDYDALSPEKREEMKTVSMGLQPYFDKLNGHKSSKEVLTQEEFDRYMEALMTHEIVRVKTKSTGAIKVEEVPEAYKERFMKAEQFMEYVDEKVR", "soluble on expression in E. coli": "soluble"}, {"sequence": "SNAMADLLLGVNIDHIATLRNARGTIYPDPVQAAFIAEQAGADGITVHLREDRRHITDRDVRILRQTIQTRMNLEMAVTDEMVDIACDIKPHFCCLVPEKRQEVTTEGGLDVAGQVDKMTLAVGRLADVGILVSLFIDADFRQIDAAVAAGAPYIEIHTGAYADASTVLERQAELMRIAKAATYAAGKGLKVNAGHGLTYHNVQPIAALPEMHELNIGHAIIGQAVMTGLAAAVTDMKVLMREARR", "soluble on expression in E. coli": "soluble"}, {"sequence": "SNAMAKITVGTENQAPIEIYYEDHGTGKPVVLIHGWPLSGRSWEYQVPALVEAGYRVITYDRRGFGKSSQPWEGYEYDTFTSDLHQLLEQLELQNVTLVGFSMGGGEVARYISTYGTDRIEKVVFAGAVPPYLYKSEDHPEGALDDATIETFKSGVINDRLAFLDEFTKGFFAAGDRTDLVSESFRLYNWDIAAGASPKGTLDCITAFSKTDFRKDLEKFNIPTLIIHGDSDATVPFEYSGKLTHEAIPNSKVALIKGGPHGLNATHAKEFNEALLLFLKD", "soluble on expression in E. coli": "soluble"}, {"sequence": "SNAMEVMLMSKYATLKYADKNIEIELPVYSPSLGNDCIDVSSLVKHGIFTYDPGFMSTAACESKITYIDGGKGVLLHRGYPIEEWTQKSNYRTLCYALIYGELPTDEQVKSFRQEIINKMPVCEHVKAAIAAMPQHTHPMSSLIAGVNVLAAEHIHNGQKESQDEVAKNIVAKIATIAAMAYRHNHGKKFLEPKMEYGYAENFLYMMFADDESYKPDELHIKAMDTIFMLHADHEQNASTSTVRLSGSTGNSPYAAIIAGITALWGPAHGGANEAVLKMLSEIGSTENIDKYIAKAKDKDDPFRLMGFGHRVYKNTDPRATAMKKNCEEILAKLGHSDNPLLTVAKKLEEIALQDEFFIERKLFSNVDFYSGIILKAMGIPEDMFTAIFALARTSGWISQWIEMVNDPAQKIGRPRQLYTGATNRNF", "soluble on expression in E. coli": "soluble"}, {"sequence": "SNAMLSANQIKFLRSLRERKYRLREQAFAVEGPKLVGEMLPFYRCRMLVGTAAMLRAVSTPHDAEVVELPESFDFKRISTQTTPQPLMAVFDLPAEPEPVVEGLTLLLDGVQDPGNVGTILRTADWFGIRHVWLGTGSADVFSPKVVQASMGALARVQPTPLKNTVDTLAYFRRQGIPVYGAFLDGQSLYEAPLPNFTEPAILVLGSEGRGISPEVAAEITDRLTIPASGLSVKGHTESLNVAIATAILCSEWRRRS", "soluble on expression in E. coli": "soluble"}, {"sequence": "SNAMNILIIGNGGREHALGWKAAQSPLADKIYVAPGNAGTALEPTLENVDIAATDIAGLLAFAQSHDIGLTIVGPEAPLVIGVVDAFRAAGLAIFGPTQAAAQLEGSKAFTKDFLARHNIPSAEYQNFTDVEAALAYVRQKGAPIVIKADGLAAGKGVIVAMTQEEAETAVNDMLAGNAFGDAGHRIVVEEFLDGEEASFIVMVDGENVLPMATSQDHKRVGDGDTGPNTGGMGAYSPAPVVTDDVHQRVMDQVIWPTVRGMAAEGNIYTGFLYAGLMISADGQPKVIEFNCRFGDPETQPIMLRMRSDLVELCLAGTQGKLNEKTSDWDERPSLGVVLAAGGYPADYRQGDVIHGLPQQEVKDGKVFHAGTKLNGNHEVVTNGGRVLCVTALGETVAQAQQYAYQLAEGIQWEGVFCRKDIGYRAIARGK", "soluble on expression in E. coli": "soluble"}, {"sequence": "SNAMNLNQLDIIVSNVPQVCADLEHILDKKADYANDGFAQFTIGSHCLMLSQNHLVPLENFQSGIIIHIEVEDVDQNYKRLNELGIKVLHGPTVTDWGTESLLVQGPAGLVLDFYRMK", "soluble on expression in E. coli": "soluble"}, {"sequence": "SNAMTGTLLSFGHGYTARVLSRALAPQGWRIIGTSRNPDQMEAIRASGAEPLLWPGEEPSLDGVTHLLISTAPDSGGDPVLAALGDQIAARAAQFRWVGYLSTTAVYGDHDGAWVDETTPLTPTAARGRWRVMAEQQWQAVPNLPLHVFRLAGIYGPGRGPFSKLGKGGIRRIIKPGQVFSRIHVEDIAQVLAASMARPDPGAVYNVCDDEPVPPQDVIAYAAELQGLPLPPAVDFDKADLTPMARSFYSENKRVRNDRIKEELGVRLKYPNYRVGLEALQADAET", "soluble on expression in E. coli": "soluble"}, {"sequence": "SNFLEIDIFNPQTVGVGRARFTTYEVRMRTNLPIFKLKESCVRRRYSDFEWLKNELERDSKIVVPPLPGKALKRQLPFRGDEGIFEESFIEERRQGLEQFINKIAGHPLAQNERCLHMFLQEEAIDRNYVPGK", "soluble on expression in E. coli": "soluble"}]}]}
